Each block holds one molecule with its values, some of them ahead of it.
Key:
[1] = molecular target: Cd200R (Rattus norvegicus) (UniProt Q9ES58); settings: cited from earlier work
[2] = molecular target: T1, biotinylated Cd200R Gaussia luciferase pentamer (bait) (rat, UniProt Q9ES58 24-239, biotin on a specific lysine of the C-terminal BirA acceptor peptide (enzymatic biotinylation)); experiment: ELISA; AVEXIS: dilution series of biotinylated Gaussia luciferase pentamer immobilised as bait on a streptavidin-coated plate, probed with beta-lactamase-tagged pentameric prey; nitrocefin read-out; settings: both partners purified
T1 construct: Cd200R (CD200 receptor 1), rat, ectodomain; also called Cd200R Gaussia luciferase-tagged pentamer; source: HEK293E, transient transfection with BirA plasmid, secreted; purified; not shown: rat Cd4 domains 3+4, C-terminal, kept; five concatenated Gaussia luciferase units (AAG54095 residues K18-D185), C-terminal, kept; BirA biotin acceptor peptide, C-terminal, kept
T1 sequence (looked up): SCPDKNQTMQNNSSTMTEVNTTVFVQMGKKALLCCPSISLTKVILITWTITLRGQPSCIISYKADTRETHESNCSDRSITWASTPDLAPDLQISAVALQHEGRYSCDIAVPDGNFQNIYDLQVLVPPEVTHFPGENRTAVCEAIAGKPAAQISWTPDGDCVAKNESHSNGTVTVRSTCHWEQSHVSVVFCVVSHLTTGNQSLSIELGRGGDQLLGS

[3] = molecular target: T2, biotinylated rat Cd200R monomeric bait (rat, UniProt Q9ES58 24-239, biotin on a specific lysine of the C-terminal BirA acceptor peptide (enzymatic monobiotinylation)); experiment: ELISA; AVEXIS: dilution series of pentameric beta-lactamase prey on a fixed quantity of monomeric mono-biotinylated bait on a streptavidin-coated 96-well plate; 1 h at room temperature, washes in PBS / 0.1% Tween-20; nitrocefin, absorbance at 485 nm; settings: both partners purified
T2 construct: Cd200R (CD200 receptor 1), rat, ectodomain; Captured on streptavidin-coated plates by its biotin; also called Cd200R bait; source: HEK293E, transient transfection with BirA plasmid, secreted; purified; not shown: rat Cd4 domains 3+4, C-terminal, kept; BirA biotin acceptor peptide, C-terminal, kept
T2 sequence (looked up): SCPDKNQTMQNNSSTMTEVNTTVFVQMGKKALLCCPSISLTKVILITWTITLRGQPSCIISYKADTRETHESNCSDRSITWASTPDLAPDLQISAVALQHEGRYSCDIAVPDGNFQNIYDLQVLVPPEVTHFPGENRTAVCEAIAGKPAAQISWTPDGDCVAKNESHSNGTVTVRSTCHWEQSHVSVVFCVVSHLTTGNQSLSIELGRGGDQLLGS

[4] = molecular target: T3, biotinylated rat Cd200R monomeric bait (rat, UniProt Q9ES58 24-239, biotin on a specific lysine of the C-terminal BirA acceptor peptide (enzymatic monobiotinylation)); experiment: ELISA; printed as log IC50 = -9.6; direct binding of pentameric prey to immobilised bait
T3 chain: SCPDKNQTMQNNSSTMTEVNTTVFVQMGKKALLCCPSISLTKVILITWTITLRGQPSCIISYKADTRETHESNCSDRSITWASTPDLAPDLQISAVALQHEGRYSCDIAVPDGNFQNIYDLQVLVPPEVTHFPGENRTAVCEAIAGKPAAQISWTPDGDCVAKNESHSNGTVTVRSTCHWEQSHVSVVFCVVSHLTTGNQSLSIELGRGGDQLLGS

[5] = molecular target: T2, biotinylated rat Cd200R monomeric bait; experiment: ELISA; AVEXIS: dilution series of pentameric Gaussia luciferase prey on a fixed quantity of monomeric mono-biotinylated bait on a streptavidin-coated 96-well plate; 1 h at room temperature; coelenterazine, luminescence; settings: both partners purified
[6] = molecular target: T1, biotinylated Cd200R Gaussia luciferase …; experiment: ELISA; AVEXIS, single construct: dilution series of biotinylated Gaussia luciferase pentamer bait on a streptavidin-coated plate, inactivated with coelenterazine, probed with non-biotinylated Gaussia luciferase pentamer prey; coelenterazine, luminescence; settings: both partners purified
[7] = molecular target: T3, biotinylated rat Cd200R monomeric bait; experiment: ELISA; printed as log IC50 = -9.9; direct binding of pentameric prey to immobilised bait
[8] = molecular target: T2, biotinylated rat Cd200R monomeric bait; experiment: ELISA; AVEXIS: dilution series of pentameric nano-luciferase prey on a fixed quantity of monomeric mono-biotinylated bait on a streptavidin-coated 96-well plate; 1 h at room temperature; furimazine, luminescence; settings: both partners purified

Molecule: Cd200 (from UniProt P04218)
Kd [1]: 2500 nM

binding result [2]: binds
binding result [3]: binds
IC50 [4]: 0.25 nM
B1: rat Cd200 beta-lactamase pentameric prey (domain or fragment, UniProt P04218 31-232, looked up)
chain: QVEVVTQDERKLLHTTASLRCSLKTTQEPLIVTWQKKKAVGPENMVTYSKAHGVVIQPTYKDRINITELGLLNTSITFWNTTLDDEGCYMCLFNMFGSGKVSGTACLTLYVQPIVHLHYNYFEDHLNITCSATARPAPAISWKGTGSGIENSTESHSHSNGTTSVTSILRVKDPKTQVGKEVICQVLYLGNVIDYKQSLDKG
notes: Cd200 (OX-2 membrane glycoprotein), rat, extracellular region (ectodomain); Original AVEXIS prey format; Pentamer through COMP; also called Cd200 beta-lactamase tagged prey; beta-lactamase-tagged Cd200 pentamer; source: HEK293E, transient transfection, secreted; not shown: rat Cd4 domains 3+4, C-terminal, kept; beta-lactamase (WP_125075679 residues H19-W282), C-terminal, kept

binding result [5]: binds
binding result [6]: binds
IC50 [7]: 0.126 nM
B2: rat Cd200 Gaussia luciferase pentameric prey (domain or fragment, UniProt P04218 31-232, looked up)
chain: QVEVVTQDERKLLHTTASLRCSLKTTQEPLIVTWQKKKAVGPENMVTYSKAHGVVIQPTYKDRINITELGLLNTSITFWNTTLDDEGCYMCLFNMFGSGKVSGTACLTLYVQPIVHLHYNYFEDHLNITCSATARPAPAISWKGTGSGIENSTESHSHSNGTTSVTSILRVKDPKTQVGKEVICQVLYLGNVIDYKQSLDKG
notes: Cd200 (OX-2 membrane glycoprotein), rat, extracellular region (ectodomain); also called Cd200 Gaussia luciferase fusion pentamer; GLuc prey; source: HEK293E, transient transfection, secreted; not shown: rat Cd4 domains 3+4, C-terminal, kept; five concatenated Gaussia luciferase units (AAG54095 residues K18-D185), C-terminal, kept

IC50 [7]: 0.126 nM
binding result [8]: binds
B3: rat Cd200 nano-luciferase pentameric prey (domain or fragment, UniProt P04218 31-232, looked up)
chain: QVEVVTQDERKLLHTTASLRCSLKTTQEPLIVTWQKKKAVGPENMVTYSKAHGVVIQPTYKDRINITELGLLNTSITFWNTTLDDEGCYMCLFNMFGSGKVSGTACLTLYVQPIVHLHYNYFEDHLNITCSATARPAPAISWKGTGSGIENSTESHSHSNGTTSVTSILRVKDPKTQVGKEVICQVLYLGNVIDYKQSLDKG
notes: Cd200 (OX-2 membrane glycoprotein), rat, extracellular region (ectodomain); also called NanoLuc prey; Nano luciferase prey; source: HEK293E, transient transfection, secreted; not shown: rat Cd4 domains 3+4, C-terminal, kept; five concatenated nano-luciferase units (AHH41346 residues V2-T171), C-terminal, kept

Source: PMC7324543, “Rapid and sensitive large-scale screening of low affinity extracellular receptor protein interactions by using reaction induced inhibition of Gaussia luciferase” (Scientific Reports, 2020)
